How the values were obtained:
TIA-1 RRM23 = molecular target: T1, TIA-1 RRM23 (UniProt P31483 104-288); assay: fluorescence anisotropy
T1 sequence: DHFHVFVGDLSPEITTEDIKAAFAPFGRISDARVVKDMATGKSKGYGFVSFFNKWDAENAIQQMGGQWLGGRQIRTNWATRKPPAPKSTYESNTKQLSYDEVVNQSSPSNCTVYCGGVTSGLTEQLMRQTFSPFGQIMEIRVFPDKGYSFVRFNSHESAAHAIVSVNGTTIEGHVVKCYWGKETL

SXL RRM12 = molecular target: T2, SXL RRM12 (UniProt P19339 122-294); assay: fluorescence anisotropy
T2 sequence: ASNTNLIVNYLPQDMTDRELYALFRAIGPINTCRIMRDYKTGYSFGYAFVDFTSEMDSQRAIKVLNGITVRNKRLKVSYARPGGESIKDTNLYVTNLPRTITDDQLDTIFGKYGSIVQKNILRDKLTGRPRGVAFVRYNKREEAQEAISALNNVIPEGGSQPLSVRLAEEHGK

B1: U20 (ssRNA)
RNA: UUUUUUUUUUUUUUUUUUUU
B1 showed a Kd (TIA-1 RRM23) of 33 ± 6 nM and a Kd (SXL RRM12) of 7 ± 3 nM.

From publication PMC3050080
